Laboratory results as given in patent US20060234308.

Assays:
[1] = system: T1, Cys-BAl-Ala-Lys-Arg-Arg-Arg-Leu-Ser-Ser-Leu-Arg-Ala-NH2
T1 sequence: CXAKRRRLSSLRA

[2] = system: T2, Cys-BAl-Gln-Lys-Arg-Pro-Ser-Gln-Arg-Ser-Lys-Tyr-Leu-NH2
T2 sequence: CXQKRPSQRSKYL

[3] = system: other peptides not described as substrates for protein kinase C
[4] = system: T3, Cys-BAl-Pro-Leu-Ser-Arg-Thr-Leu-Ser-Val-Ala-Ala-Lys-Lys-NH2
T3 sequence: CXPLSRTLSVAAKK

[5] = system: T4, Cys-BAl-Lys-Lys-Arg-Phe-Ser-Phe-Lys-Lys-Ser-Phe-Lys-Leu-NH2
T4 sequence: CXKKRFSFKKSFKL

[6] = system: T5, Cys-BAl-Pro-Lys-Asp-Pro-Ser-Gln-Arg-Arg-Arg-NH2
T5 sequence: CXPKDPSQRRR

[7] = system: T6, Cys-BAl-Gly-Arg-Thr-Gly-Arg-Arg-Asn-Ser-Ile-NH2
T6 sequence: CXGRTGRRNSI

[8] = system: T7, Dpr(Aoa)-Leu-Arg-Arg-Ala-Ser-Leu-Gly-NH2
T7 sequence: LRRASLG

[9] = system: T8, Cys-BAl-Lys-Arg-Arg-Glu-Ile-Leu-Ser-Arg-Arg-Pro-Ser-Tyr-Arg-NH2
T8 sequence: CXKRREILSRRPSYR

[10] = system: T9, Cys-βAla-Leu-Arg-Arg-Ala-Ser-Leu-Gly-NH2
T9 sequence: CXLRRASLG

[11] = system: T10, Arg-Arg-Ile-Ser-Lys-Asp-Asn-Pro-Asp-Tyr-Gln-Gln-Asp-BAl-Cys-NH2
T10 sequence: RRISKDNPDYQQDXC

[12] = system: T11, Leu-Arg-Arg-Ala-Ser-Leu-Gly-thioamide
T11 sequence: LRRASLG

[13] = system: 13-mer peptides of the scan through the myelin basic protein (MBP) from bos taurus

Protein kinase C
phosphorylation on peptide array (32P, PhosphorImager; higher signal in all three subarrays) [1]: the peptides known as protein kinase C substrates (substrate peptides Nos. 3, 23, 27, 41, 43) ... are recognised and phosphorylated by this kinase on the modified glass surface
phosphorylation on peptide array (32P, PhosphorImager; higher signal in all three subarrays) [2]: the peptides known as protein kinase C substrates (substrate peptides Nos. 3, 23, 27, 41, 43) ... are recognised and phosphorylated by this kinase on the modified glass surface
phosphorylation on peptide array (32P, PhosphorImager; higher signal in all three subarrays) [3]: other peptides not described as substrates for protein kinase C are recognised and phosphorylated by this kinase on the modified glass surface
phosphorylation on peptide array (32P, PhosphorImager; higher signal in all three subarrays) [4]: the peptides known as protein kinase C substrates (substrate peptides Nos. 3, 23, 27, 41, 43) ... are recognised and phosphorylated by this kinase on the modified glass surface
phosphorylation on peptide array (32P, PhosphorImager; higher signal in all three subarrays) [5]: the peptides known as protein kinase C substrates (substrate peptides Nos. 3, 23, 27, 41, 43) ... are recognised and phosphorylated by this kinase on the modified glass surface
phosphorylation on peptide array (32P, PhosphorImager; higher signal in all three subarrays) [6]: the peptides known as protein kinase C substrates (substrate peptides Nos. 3, 23, 27, 41, 43) ... are recognised and phosphorylated by this kinase on the modified glass surface

Protein kinase A
phosphorylation on peptide array (32P, PhosphorImager; higher signal in all three subarrays) [7]: with one exception, all the peptides on the modified glass surface are recognised and phosphorylated by protein kinase A which carries two arginine residues in position -2 and -3 (N-terminal) to the serine
phosphorylation on peptide array (32P, PhosphorImager; higher signal in all three subarrays) [1]: with one exception, all the peptides on the modified glass surface are recognised and phosphorylated by protein kinase A which carries two arginine residues in position -2 and -3 (N-terminal) to the serine
phosphorylation of 960 spots on glass (32P, PhosphorImager; FIG. 7) [8]: the linking of the immobilised kinase substrate is tolerated by the protein kinase A
phosphorylation on peptide array (32P, PhosphorImager; higher signal in all three subarrays) [9]: with one exception, all the peptides on the modified glass surface are recognised and phosphorylated by protein kinase A which carries two arginine residues in position -2 and -3 (N-terminal) to the serine
phosphorylation on peptide array (32P, PhosphorImager; higher signal in all three subarrays) [10]: with one exception, all the peptides on the modified glass surface are recognised and phosphorylated by protein kinase A which carries two arginine residues in position -2 and -3 (N-terminal) to the serine
time course of 32P incorporation on modified glass (FIG. 3) [10]: a clear time dependence can be identified for the kinase-mediated incorporation of radioactivity into the substrate amino acid sequence
phosphorylation on peptide array (32P, PhosphorImager) [11]: The peptide 83 is probably not phosphorylated because of the excessive N-terminal localisation of the substrate motif
phosphorylation of 11760 spots on glass (32P, PhosphorImager; FIG. 6) [12]: the linking of the immobilised kinase substrate is tolerated by the protein kinase A
phosphorylation on MBP peptide scan array (32P, PhosphorImager; higher signal in all three subarrays) [13]: most of the peptides on the modified glass surface are recognised and phosphorylated by protein kinase A which was also found in the experiment carried out in solution
